Patent US20240383964A1, “De Novo Designed alpha(5) beta(1) Integrin selective minibinders” (UNIVERSITY OF WASHINGTON, priority 2023, published 2024)
One block for each molecule: values may come before it. The star is where a group is joined. Biotin = O=C1N[C@H]2[C@H](CS[C@H]2CCCCC(=O)*)N1

Experiments:
integrin α8β1 = molecular target: T1, integrin α8β1 (UniProt P53708 39-1012; P05556 21-728); test: BLI (Octet), minibinder on the sensor, integrin α8β1 in solution [panel α8β1]
T1 construct: also called a8b1
Procedure: (§1) Because of the large size of integrin and the distribution of integrin α5β1 on the cell surface, it was of interest to measure the affinity of the binders on the cell surface. Using wild type A562, the binding affinity of binders to α5β1 was measured, which is the only RGD binding integrin expressed in WT A562.
(§2) Prior to measurements, streptavidin-coated biosensors were first equilibrated for at least 10 min in assay buffer. Protein binders with an N-terminal biotin were immobilized onto the biosensors by dipping them into a solution with 100 nM protein until the response reached between 10% and 50% of the maximum value followed by dipping sensors into fresh buffer to establish a baseline for 120 s. Titration experiments were performed at 25 degrees Celsius while rotating at 1000 rpm. Association of integrins was allowed by dipping biosensors in solutions containing designed protein diluted in buffer until equilibrium was approached followed by dissociation by dipping the biosensors into fresh buffer solution to monitor the dissociation kinetics. In the minibinder binding cross specificity assays each biotinylated minibinder was loaded onto streptavidin biosensors in equal amounts followed by 2 min of baseline equilibration. The association and dissociation with all the different binders were allowed for 900-1500 s for each step. […]

integrin αvβ1 = molecular target: T2, integrin αvβ1 (UniProt P06756 31-992; P05556 21-728); test: BLI (Octet), minibinder on the sensor, integrin αvβ1 in solution [panel αvβ1]
T2 construct: also called avb1
Procedure: as §1, §2

integrin αvβ3 = molecular target: T3, integrin αvβ3 (UniProt P06756 31-992; P05106 27-718); test: BLI (Octet), minibinder on the sensor, integrin αvβ3 in solution [panel αvβ3]
T3 construct: also called avb3
T3 sequence (P06756 31-992, chain 1 of 2): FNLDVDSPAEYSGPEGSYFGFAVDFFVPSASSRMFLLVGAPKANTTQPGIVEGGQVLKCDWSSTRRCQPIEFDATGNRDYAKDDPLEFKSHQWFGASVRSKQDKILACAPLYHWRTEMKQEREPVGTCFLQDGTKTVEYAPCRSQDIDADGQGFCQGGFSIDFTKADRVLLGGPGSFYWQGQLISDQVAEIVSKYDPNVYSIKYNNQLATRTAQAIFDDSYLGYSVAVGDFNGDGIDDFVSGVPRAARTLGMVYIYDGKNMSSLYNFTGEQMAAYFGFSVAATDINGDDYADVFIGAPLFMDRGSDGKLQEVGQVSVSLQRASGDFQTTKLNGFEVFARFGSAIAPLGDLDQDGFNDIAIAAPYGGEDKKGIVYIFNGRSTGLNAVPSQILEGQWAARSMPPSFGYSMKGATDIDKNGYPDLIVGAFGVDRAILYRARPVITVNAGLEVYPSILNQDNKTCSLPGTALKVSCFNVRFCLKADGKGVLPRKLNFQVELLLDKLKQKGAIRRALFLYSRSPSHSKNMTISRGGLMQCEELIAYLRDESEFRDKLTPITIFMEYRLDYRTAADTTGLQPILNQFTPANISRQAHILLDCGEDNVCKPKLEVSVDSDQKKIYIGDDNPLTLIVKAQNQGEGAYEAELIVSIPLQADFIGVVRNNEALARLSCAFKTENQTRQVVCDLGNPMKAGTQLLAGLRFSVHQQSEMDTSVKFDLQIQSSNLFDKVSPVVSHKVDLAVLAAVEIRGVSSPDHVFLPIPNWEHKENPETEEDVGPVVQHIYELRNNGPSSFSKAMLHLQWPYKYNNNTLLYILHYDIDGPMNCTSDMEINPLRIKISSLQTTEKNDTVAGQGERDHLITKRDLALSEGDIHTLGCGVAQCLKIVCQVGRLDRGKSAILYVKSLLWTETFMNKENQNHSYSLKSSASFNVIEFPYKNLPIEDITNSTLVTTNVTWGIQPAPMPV
T3 sequence (P05106 27-718, chain 2 of 2): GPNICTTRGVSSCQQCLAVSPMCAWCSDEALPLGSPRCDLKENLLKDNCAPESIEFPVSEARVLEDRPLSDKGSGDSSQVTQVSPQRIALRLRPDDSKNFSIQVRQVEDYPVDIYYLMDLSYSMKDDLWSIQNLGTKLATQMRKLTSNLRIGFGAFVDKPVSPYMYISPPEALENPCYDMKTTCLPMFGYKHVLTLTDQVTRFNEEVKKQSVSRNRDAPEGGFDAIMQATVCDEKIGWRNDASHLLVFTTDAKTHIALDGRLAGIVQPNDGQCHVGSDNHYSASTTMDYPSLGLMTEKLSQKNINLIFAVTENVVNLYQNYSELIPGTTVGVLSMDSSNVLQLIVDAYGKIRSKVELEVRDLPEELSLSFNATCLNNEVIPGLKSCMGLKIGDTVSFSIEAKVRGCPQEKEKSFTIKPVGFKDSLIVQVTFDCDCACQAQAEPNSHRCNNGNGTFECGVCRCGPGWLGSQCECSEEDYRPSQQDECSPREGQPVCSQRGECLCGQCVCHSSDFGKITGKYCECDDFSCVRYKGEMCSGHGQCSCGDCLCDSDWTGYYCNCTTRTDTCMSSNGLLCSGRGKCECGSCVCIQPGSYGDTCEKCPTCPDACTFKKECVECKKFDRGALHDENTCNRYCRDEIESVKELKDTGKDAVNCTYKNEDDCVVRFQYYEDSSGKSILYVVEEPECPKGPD
Procedure: as §1, §2

integrin αvβ8 = molecular target: T4, integrin αvβ8 (UniProt P06756 31-992; P26012 43-684); test: BLI (Octet), minibinder on the sensor, integrin αvβ8 in solution [panel αvβ8]
T4 construct: also called avb8
Procedure: as §1, §2

[1] = molecular target: T5, integrin α5β1 on the cell surface (UniProt P08648 42-1049; P05556 21-798); test: cell surface titration on wild type K562 cells, readout Binder Bound Cells (%)
T5 construct: whole, on cells; HUVECs in the functional assays; also called α5β1 on wild type K562 (printed also A562) cells; α5β1 on HUVECs
T5 sequence (P08648 42-1049, chain 1 of 2): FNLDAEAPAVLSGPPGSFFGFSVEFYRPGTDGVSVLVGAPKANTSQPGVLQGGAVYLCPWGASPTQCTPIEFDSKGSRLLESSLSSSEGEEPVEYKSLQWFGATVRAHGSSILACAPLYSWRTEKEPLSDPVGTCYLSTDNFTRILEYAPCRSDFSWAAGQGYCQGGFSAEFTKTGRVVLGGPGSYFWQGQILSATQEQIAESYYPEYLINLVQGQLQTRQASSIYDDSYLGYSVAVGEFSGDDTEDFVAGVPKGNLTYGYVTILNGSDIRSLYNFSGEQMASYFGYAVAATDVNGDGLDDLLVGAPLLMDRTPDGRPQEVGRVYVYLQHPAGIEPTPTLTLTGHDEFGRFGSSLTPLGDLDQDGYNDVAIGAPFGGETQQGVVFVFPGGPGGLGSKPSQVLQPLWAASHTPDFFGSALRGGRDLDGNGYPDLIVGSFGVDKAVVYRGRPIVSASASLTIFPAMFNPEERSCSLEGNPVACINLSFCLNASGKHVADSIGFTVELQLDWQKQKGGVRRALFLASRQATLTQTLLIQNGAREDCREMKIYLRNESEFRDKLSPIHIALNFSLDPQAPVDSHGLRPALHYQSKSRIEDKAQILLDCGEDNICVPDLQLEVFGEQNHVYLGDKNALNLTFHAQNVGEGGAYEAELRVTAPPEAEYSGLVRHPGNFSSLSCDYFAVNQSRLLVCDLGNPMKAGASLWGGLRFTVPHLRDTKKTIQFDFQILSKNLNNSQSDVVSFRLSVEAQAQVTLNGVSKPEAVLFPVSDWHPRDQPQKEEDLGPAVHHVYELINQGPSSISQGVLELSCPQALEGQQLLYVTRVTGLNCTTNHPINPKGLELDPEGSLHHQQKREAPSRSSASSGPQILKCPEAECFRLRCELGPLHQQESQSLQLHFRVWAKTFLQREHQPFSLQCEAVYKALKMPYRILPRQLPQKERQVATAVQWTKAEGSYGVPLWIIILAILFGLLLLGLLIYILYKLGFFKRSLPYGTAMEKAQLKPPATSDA
T5 sequence (P05556 21-798, chain 2 of 2): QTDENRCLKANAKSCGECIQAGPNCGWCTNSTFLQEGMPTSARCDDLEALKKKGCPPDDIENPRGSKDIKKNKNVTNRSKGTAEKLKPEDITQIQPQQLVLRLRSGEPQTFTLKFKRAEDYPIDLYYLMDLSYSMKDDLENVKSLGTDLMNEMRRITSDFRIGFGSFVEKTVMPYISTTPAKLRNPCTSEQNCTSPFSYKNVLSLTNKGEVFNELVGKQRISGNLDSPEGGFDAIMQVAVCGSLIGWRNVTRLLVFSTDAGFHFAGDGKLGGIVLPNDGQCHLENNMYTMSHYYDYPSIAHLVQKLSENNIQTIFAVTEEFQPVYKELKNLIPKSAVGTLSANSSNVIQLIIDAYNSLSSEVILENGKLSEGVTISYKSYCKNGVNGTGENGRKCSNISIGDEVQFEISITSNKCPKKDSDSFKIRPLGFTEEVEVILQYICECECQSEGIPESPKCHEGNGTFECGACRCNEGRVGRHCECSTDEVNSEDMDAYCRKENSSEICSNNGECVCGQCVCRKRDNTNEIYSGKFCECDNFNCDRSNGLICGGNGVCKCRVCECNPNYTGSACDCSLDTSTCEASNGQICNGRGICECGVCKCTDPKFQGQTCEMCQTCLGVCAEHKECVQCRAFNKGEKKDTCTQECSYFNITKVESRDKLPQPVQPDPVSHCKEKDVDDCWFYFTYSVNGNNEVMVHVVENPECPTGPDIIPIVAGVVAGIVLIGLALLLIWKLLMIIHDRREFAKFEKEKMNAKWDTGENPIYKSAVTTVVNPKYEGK

integrin α5β1 [2] = molecular target: T6, integrin α5β1 (UniProt P08648 42-995; P05556 21-728); test: BLI, integrin resting buffer (1 mM MgCl2, 1 mM CaCl2, pH 7.4), binder immobilised; BLI, integrin resting buffer pH 7.4 with 1 mM MgCl2, 1 mM CaCl2
T6 construct: also called alpha(5) beta(1) integrin; a5b1
T6 sequence (P08648 42-995, chain 1 of 2): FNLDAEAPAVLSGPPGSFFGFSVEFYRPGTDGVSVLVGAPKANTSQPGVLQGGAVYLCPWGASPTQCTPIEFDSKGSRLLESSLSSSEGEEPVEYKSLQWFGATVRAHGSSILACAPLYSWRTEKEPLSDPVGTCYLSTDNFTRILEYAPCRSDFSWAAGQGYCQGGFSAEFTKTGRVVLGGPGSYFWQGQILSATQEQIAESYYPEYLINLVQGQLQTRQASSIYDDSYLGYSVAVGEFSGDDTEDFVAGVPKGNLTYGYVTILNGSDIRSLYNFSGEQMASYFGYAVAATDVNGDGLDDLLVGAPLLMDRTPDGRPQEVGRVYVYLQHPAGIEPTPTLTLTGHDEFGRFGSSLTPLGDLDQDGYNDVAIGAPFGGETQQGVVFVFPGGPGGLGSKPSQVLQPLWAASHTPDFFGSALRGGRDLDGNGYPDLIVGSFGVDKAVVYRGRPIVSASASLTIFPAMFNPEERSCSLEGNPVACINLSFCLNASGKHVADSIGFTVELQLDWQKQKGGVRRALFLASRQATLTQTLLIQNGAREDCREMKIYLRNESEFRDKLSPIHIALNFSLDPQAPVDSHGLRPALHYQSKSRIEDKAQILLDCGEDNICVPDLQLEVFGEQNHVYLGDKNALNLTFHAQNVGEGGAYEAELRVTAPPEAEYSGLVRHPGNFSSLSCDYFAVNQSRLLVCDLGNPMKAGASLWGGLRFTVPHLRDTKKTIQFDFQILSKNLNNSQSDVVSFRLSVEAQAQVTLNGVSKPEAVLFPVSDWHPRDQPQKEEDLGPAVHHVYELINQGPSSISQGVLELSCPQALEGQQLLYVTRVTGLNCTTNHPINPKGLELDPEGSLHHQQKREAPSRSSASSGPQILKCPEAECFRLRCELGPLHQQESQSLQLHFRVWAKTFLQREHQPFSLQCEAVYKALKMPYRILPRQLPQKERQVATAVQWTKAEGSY
T6 sequence (P05556 21-728, chain 2 of 2): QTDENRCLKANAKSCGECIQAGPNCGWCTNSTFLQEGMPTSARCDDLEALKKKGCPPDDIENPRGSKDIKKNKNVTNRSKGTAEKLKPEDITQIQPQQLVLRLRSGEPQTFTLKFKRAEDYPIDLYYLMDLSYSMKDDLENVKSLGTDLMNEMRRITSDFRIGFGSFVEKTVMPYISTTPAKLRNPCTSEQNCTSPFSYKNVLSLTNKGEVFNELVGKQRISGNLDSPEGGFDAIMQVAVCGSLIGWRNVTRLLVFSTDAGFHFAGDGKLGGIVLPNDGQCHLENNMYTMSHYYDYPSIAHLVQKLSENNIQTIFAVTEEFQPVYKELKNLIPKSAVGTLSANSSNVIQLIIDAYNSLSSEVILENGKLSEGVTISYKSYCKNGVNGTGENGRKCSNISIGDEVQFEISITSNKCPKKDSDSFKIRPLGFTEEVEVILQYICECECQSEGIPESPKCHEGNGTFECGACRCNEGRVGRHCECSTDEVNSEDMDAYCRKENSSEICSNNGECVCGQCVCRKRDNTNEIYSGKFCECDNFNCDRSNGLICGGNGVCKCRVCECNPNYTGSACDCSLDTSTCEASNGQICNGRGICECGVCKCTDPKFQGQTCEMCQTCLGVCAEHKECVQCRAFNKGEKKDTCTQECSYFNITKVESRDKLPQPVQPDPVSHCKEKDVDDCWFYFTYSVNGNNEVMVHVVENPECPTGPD
Procedure: (§3) The binding affinity of each variant was calculated as described in Cao et al, 2022. By combining the beneficial mutations, combination libraries were constructed and screened for binding to α5β1 at an affinity as low as 200 pico-molar (FIG. 4). […] Because RGD binding depends on metal ions, the binders were tested for binding to integrin without metal ions. […] Similarly, mutating the RGD motif to GGG also abolished the binding ability. […] This is surprising, and provides a tool to track integrin α5β1 in endosome and lysosome.
(§4) Prior to measurements, streptavidin-coated biosensors were first equilibrated for at least 10 min in assay buffer. Protein binders with an N-terminal biotin were immobilized onto the biosensors by dipping them into a solution with 100 nM protein until the response reached between 10% and 50% of the maximum value followed by dipping sensors into fresh buffer to establish a baseline for 120 s. Titration experiments were performed at 25 degrees Celsius while rotating at 1000 rpm. Association of integrins was allowed by dipping biosensors in solutions containing designed protein diluted in buffer until equilibrium was approached followed by dissociation by dipping the biosensors into fresh buffer solution to monitor the dissociation kinetics.

integrin α5β1 [3] = molecular target: T6, integrin α5β1; test: BLI (Octet), minibinder on the sensor, integrin α5β1 in solution at labelled concentrations up to 200 nM; buffer 1 mM Ca2+, 1 mM Mg2+, pH 5 [lower left panel]
Procedure: as §3, §4

integrin α5β1 [4] = molecular target: T6, integrin α5β1; test: BLI (Octet), 00179_v4.1 RGD→GGG on the sensor, integrin α5β1 in solution; 1 mM Ca2+, 1 mM Mg2+, pH 7.4 [lower right panel]
Procedure: as §3, §4

HUVECs = test: Scratch-wound cell migration assay; type: cell-based, human; conditions: 20 nM, 12 hours, compared to PBS control
Procedure: FIG. 2. (A) BLI binding affinity traces for minibinder or ^8RGD^10/GGG mutant against α5β1 in indicated buffers. Minibinder affinity to integrin α5β1 is dependent on metal ion presence and RGD motif. All affinity data was collected by Octet™ R8 and binding affinity was estimated by the Octet™ ForteBio software package. (B) Minibinder has no detectable affinity in presence of 500 nM or 1000 nM integrin αvβ1, αvβ3, αvβ6, αvβ8 and α8β1. (C) Cell surface titration of minibinder 4584_V5.3 and 00179_v4.1 against K562 cells wild type. […] Integrin α5 subunit and β1 subunit were stained with integrin α5 and active integrin β1 subunit specific antibody, respectively. (E) Quantification of (D). Quantification was counted as a percentage of mb-sheets that colocalized with staining of a5 and b1, a5 only, b1 only, or none; 30-35 sheets were counted in each biological repeat. […] Minibinders were added to HUVEC cells at 0, 0.1, 1, 10, and 100 nM. Vascular stability was analyzed at 12-h timepoints. 20 images were taken in each well at random locations. The scale bar is 100 μm. (G) Quantification of (F). The number of nodes, meshes, and tubes from images in (F) were quantified using an angiogenesis analyzer plug-in in ImageJ. Statistical significance of each were analyzed using One-way Anova Bonferroni's multiple comparison test. […] The wound area of T0 and T12 time points were quantified using imageJ and level of cell migration were calculated using this equation (AreaT0-T12)/AreaT0, all samples were normalized to PBS as fold change.
The inhibitory effect of 20 nM soluble 00179_v4.1 on cell migration was assessed using the scratch-wound assay. HUVECs were seeded with either 00179_v4.1 or PBS (used as a […] control) for 12 hours before capturing images for analysis.

B1: xw_a5b1_00179_v4.1 (designed binder)
chain: SELIIHGRGDFPSSELERLRERFERLGIKVRVDHKVLTLIGISEEEAERLARELRKRGIWVEIRK
modifications: also: N-terminal avi-tag/biotin for BLI, His6 tag at N- or C-terminus, tag sequences not given here
notes: a His6 tag stood at the N- or C-terminus
binding result (integrin α8β1): no binding (tested: 500 nM)
binding result (integrin αvβ1): no binding (tested: 500 nM)
binding result (integrin αvβ3): no binding (tested: 500 nM)
binding result (integrin αvβ8): no binding (tested: 500 nM)
EC50 (read off the curve) [1]: ~2 nM
Kd (integrin α5β1 [2]): 0.3 nM
Kd (integrin α5β1 [3]): 40 nM

B4: C6-mb: hexamer formed by mixing 00179_v4.1_N-term-LHD101A (SEQ ID NO:16) and C6-71-9-1_101B (SEQ ID NO:17) at 6:1 ratio (protein)
chain 1: MSGRQEKVLKSIEETVRKMGVTMETHRSGNEVKVVIKGLHIKQQRQLYRDVRETSKKQGVETEIEVEGDTVTIVVREGGSGGSELIIHGRGDFPRSELERLRERFERLGIKVRVDHKVLTLIGISEEEAERLARELRKRGIWVEIRKGSGSHHWGSTHHHHHH
chain 2: MGRQEKVLKSIEETVRKMGVTMETHRSGNEVKVVIKGLHESQQEQLLEDVLRTAEKQGVRVRIRFKGDTVTIVVREGSPEEILERAKESLERAKEAFERGDEEEFRKAAEKALELAKRLVEQAKKEGDPELVFEAARVALWVAWLAAWFGDKEVFKKAAESALEVAKRLVEVAKEEGDPELVLKAAFVALLVAIMAVILGDKEVFKKAAESALEVAKRLVEIAAREGDPELVEEAAKVAELVRELAKLMGDEEVYEKARETAREVRLFLLFVRIWEGGGGSLEHHHHHH
modifications: 6:1 hexameric assembly; VARIANT 1 optionally absent; VARIANT 148..163 optionally absent; VARIANT 282..289 optionally absent
cell migration (HUVECs): even more pronounced inhibition of cell migration
cell migration (HUVECs; listed as C6-oligomer): inhibits cell migration

The remaining lines, values ahead:

binding result (integrin α5β1 [4]): no binding (tested: 1000 nM)
B2: 8RGD10/GGG mutant of minibinder 00179_v4.1 (designed binder)
chain: Biotin-SELIIHGGGGFPSSELERLRERFERLGIKVRVDHKVLTLIGISEEEAERLARELRKRGIWVEIRK
notes: also called RGD/GGG mutant

binding result [1]: binds
B3: xw_a5b1_004584v5.3 (designed binder)
chain: GEVEVHGRGDIPRSSLELFEKVAKELGLKVERNHRTVTVKGVSEEQIRELEEVAKKLGLWVLVRVTE
notes: Tags of the construct as assayed are not specified
